Measurements as given in US7351690B2, “Knockout identification of target-specific sites in peptides” (priority 2000, dated 2008).
Square brackets hold non-standard residues; d marks the D form. Ends that are not written are not given here. Nle = CCCC[C@H](N)C(=O)O

Legend:
hMC4-R = target: T1, hMC4-R (Homo sapiens, UniProt P32245); assay: competitive inhibition binding assay, 125I-NDP-alpha-MSH, hMC4-R membranes; conditions: 1 μM test peptide; 0.4 nM 125I-NDP-alpha-MSH; hMC4-R membranes
T1 construct: expressed in transfected cells
T1 sequence (P32245 whole entry): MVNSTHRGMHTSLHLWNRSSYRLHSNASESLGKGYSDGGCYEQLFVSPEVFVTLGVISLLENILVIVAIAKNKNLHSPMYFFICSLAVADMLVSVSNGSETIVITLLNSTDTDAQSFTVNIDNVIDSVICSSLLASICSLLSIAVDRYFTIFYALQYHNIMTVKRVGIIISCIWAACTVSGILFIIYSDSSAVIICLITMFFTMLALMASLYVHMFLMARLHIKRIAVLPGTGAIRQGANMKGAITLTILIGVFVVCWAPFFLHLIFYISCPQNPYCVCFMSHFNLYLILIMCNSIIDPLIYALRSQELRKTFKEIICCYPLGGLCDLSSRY
Description: (§1) The competitive inhibition binding assay was conducted using membranes prepared from hMC3-R, hMC4-R, hMC5-R, and B-16 mouse melanoma cells (containing MC1-R) using 0.4 nM ^125I-NDP-alpha-MSH (New England Nuclear, Boston, Mass., USA) in 50 mM HEPES buffer containing 1 mM MgCl2, 2 mM CaCl2, and 5 mM KCl, at pH 7.2. The assay tube also contained a chosen concentration of the test peptide of this invention complexed to a rhenium metal ion, typically at a 1 μM concentration, for determining its efficacy in inhibiting the binding of ^125I-NDP-alpha-MSH to its receptor. Non-specific binding was measured by complete inhibition of binding of ^125I-NDP-alpha-MSH in the assay with the presence of 1 μM alpha-MSH. Incubation was for 90 minutes at room temperature, after which the assay mixture was filtered and the membranes washed three times with ice cold buffer. The filter was dried and counted in a gamma counter for remaining radioactivity bound to the membranes. 100% specific binding was defined as the difference in radioactivity (cpm) bound to cell membranes in the absence and presence of 1 μM alpha-MSH. The cpm obtained in presence of test compounds were normalized with respect to 100% specific binding to determine the percent inhibition of ^125I-NDP-alpha MSH binding. Each assay was conducted in triplicate and the actual mean valves are described.

MC1-R = target: T2, MC1-R (Mus musculus, UniProt Q01727); assay: competitive inhibition binding assay, 125I-NDP-alpha-MSH, B-16 mouse melanoma cell membranes; conditions: 1 μM test peptide; 0.4 nM 125I-NDP-alpha-MSH; B-16 mouse melanoma cell membranes
T2 construct: membranes prepared from hMC3-R, hMC4-R, hMC5-R, and B-16 mouse melanoma cells (containing MC1-R); endogenous in cells; host or cells: B-16 mouse melanoma cells (membranes)
T2 sequence (Q01727 whole entry): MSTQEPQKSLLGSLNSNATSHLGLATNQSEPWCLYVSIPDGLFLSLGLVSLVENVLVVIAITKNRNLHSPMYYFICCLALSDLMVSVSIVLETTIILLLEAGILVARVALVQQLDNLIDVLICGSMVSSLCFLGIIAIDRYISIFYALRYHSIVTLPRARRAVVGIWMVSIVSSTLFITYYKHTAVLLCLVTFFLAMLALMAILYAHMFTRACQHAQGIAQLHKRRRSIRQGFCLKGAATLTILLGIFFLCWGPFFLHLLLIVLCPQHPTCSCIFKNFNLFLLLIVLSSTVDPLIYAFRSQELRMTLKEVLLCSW
Description: as §1

hMC5-R = target: T3, hMC5-R (Homo sapiens, UniProt P33032); assay: competitive inhibition binding assay, 125I-NDP-alpha-MSH, hMC5-R membranes; conditions: 1 μM test peptide; 0.4 nM 125I-NDP-alpha-MSH; hMC5-R membranes
T3 construct: expressed in transfected cells
T3 sequence (P33032 whole entry): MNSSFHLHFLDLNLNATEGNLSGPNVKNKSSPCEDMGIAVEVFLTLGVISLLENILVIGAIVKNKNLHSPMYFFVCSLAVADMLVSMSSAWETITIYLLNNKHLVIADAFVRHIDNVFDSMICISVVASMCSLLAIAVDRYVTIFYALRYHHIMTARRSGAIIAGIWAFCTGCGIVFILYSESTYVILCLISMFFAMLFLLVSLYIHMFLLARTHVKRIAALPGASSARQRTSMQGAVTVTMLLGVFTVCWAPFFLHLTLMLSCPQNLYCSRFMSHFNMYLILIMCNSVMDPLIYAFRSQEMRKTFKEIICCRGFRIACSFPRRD
Description: as §1

hMC3-R = target: T4, hMC3-R (Homo sapiens, UniProt P41968); assay: competitive inhibition binding assay, 125I-NDP-alpha-MSH, hMC3-R membranes; conditions: 1 μM test peptide; 0.4 nM 125I-NDP-alpha-MSH; hMC3-R membranes
T4 construct: expressed in transfected cells
T4 sequence (P41968 whole entry): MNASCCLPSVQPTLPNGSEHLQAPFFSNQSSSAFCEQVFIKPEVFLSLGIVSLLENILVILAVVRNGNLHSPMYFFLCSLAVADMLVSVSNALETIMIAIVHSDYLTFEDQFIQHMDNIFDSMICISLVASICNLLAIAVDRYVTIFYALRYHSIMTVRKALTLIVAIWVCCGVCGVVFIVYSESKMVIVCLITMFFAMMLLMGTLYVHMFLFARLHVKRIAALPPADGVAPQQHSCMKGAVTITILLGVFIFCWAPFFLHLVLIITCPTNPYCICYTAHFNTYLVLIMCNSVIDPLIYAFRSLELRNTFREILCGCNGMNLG
Description: as §1

| Substance | % Inhibition at 1 μM at Melanocortin Receptor 4 (hMC4-R) [%] | % Inhibition at 1 μM at Melanocortin Receptor 1 (MC1-R) [%] | % Inhibition at 1 μM at Melanocortin Receptor 5 (hMC5-R) [%] | % Inhibition at 1 μM at Melanocortin Receptor 3 (hMC3-R) [%] |
| --- | --- | --- | --- | --- |
| Ac-Ser-Tyr-Ser-Nle-Glu-D-Cys-His-Phe-Arg-Trp-Gly-Lys-Pro-Val-NH2 (Ac-SYS[Nle]E[dC]HFRWGKPV-NH2; numbers in words are those of the source; also: oxorhenium(V) N3S1 chelate via Cys (Re(V)=O)) [2-9] | 35 | 92 | 2 | 13 |
| Ac-Ser-Tyr-Ser-Nle-Glu-His-Cys-Phe-Arg-Trp-Gly-Lys-Pro-Val-NH2 (Ac-SYS[Nle]EHCFRWGKPV-NH2; not fully specified (bridges); printed as Ac-Ser-Tyr-Ser-Nle-Glu-His-Cys-Phe-Arg-Trp-Gly-Lys-Pro-Val-NH2; numbers in words are those of the source; also: oxorhenium(V) N3S1 chelate (Re(V)=O)) [1-8] | 0 | 42 | 1 | 0 |
| Ac-Ser-Tyr-Ser-Nle-Glu-His-D-Cys-Phe-Arg-Trp-Gly-Lys-Pro-Val-NH2 (CFRWGKPV; Ac-Ser-Tyr-Ser-Nle-Glu-His N-term; D-residue; amide; printed: Cys-Phe-Arg-Trp-Gly-Lys-Pro-Val-) [2-8] | 25 | 69 | 29 | 0 |
| Ac-Ser-Tyr-Ser-Nle-Glu-His-Phe-Arg-Cys-Trp-Gly-Lys-Pro-Val-NH2 (Ac-SYS[Nle]EHFRCWGKPV-NH2; not fully specified (bridges); printed as Ac-Ser-Tyr-Ser-Nle-Glu-His-Phe-Arg-Cys-Trp-Gly-Lys-Pro-Val-NH2; numbers in words are those of the source; also: oxorhenium(V) N3S1 chelate (Re(V)=O)) [1-6] | 0 | 29 | 0 | 0 |
| Ac-Ser-Tyr-Ser-Nle-Glu-His-Phe-Arg-D-Cys-Trp-Gly-Lys-Pro-Val-NH2 (chain 1 Ac-SYS[Nle]EHFR; chain 2 [dC]WGKPV-NH2; not fully specified (bridges); numbers in words are those of the source; also: oxorhenium(V) N3S1 chelate (Re(V)=O)) [2-6] | 6 | 46 | 6 | 2 |
| Ac-Ser-Tyr-Ser-Nle-Glu-His-Phe-Arg-Trp-Cys-Gly-Lys-Pro-Val-NH2 (Ac-SYS[Nle]EHFRWCGKPV-NH2; not fully specified (bridges); printed as Ac-Ser-Tyr-Ser-Nle-Glu-His-Phe-Arg-Trp-Cys-Gly-Lys-Pro-Val-NH2; numbers in words are those of the source; also: oxorhenium(V) N3S1 chelate (Re(V)=O)) [1-5] | 0 | 57 | 0 | 0 |
| Ac-Ser-Tyr-Ser-Nle-Glu-His-Phe-Arg-Trp-D-Cys-Gly-Lys-Pro-Val-NH2 (chain 1 Ac-SYS[Nle]EHFRW; chain 2 [dC]GKPV-NH2; not fully specified (bridges); numbers in words are those of the source; also: oxorhenium(V) N3S1 chelate (Re(V)=O)) [2-5] | 4 | 43 | 0 | 0 |
| Ac-Ser-Tyr-Ser-Nle-Glu-His-Phe-Arg-Trp-Gly-Cys-Lys-Pro-Val-NH2 (Ac-SYS[Nle]EHFRWGCKPV-NH2; not fully specified (bridges); printed as Ac-Ser-Tyr-Ser-Nle-Glu-His-Phe-Arg-Trp-Gly-Cys-Lys-Pro-Val-NH2; numbers in words are those of the source; also: oxorhenium(V) N3S1 chelate (Re(V)=O)) [1-4] | 0 | 72 | 6 | 0 |
| Ac-Ser-Tyr-Ser-Nle-Glu-His-Phe-Arg-Trp-Gly-D-Cys-Lys-Pro-Val-NH2 (chain 1 EHFRWG; chain 2 CKPV; not fully specified; Ac-Ser-Tyr-Ser-Nle N-term; D-residue; amide; printed: Glu-His-Phe-Arg-Trp-Gly-; printed: Cys-Lys-Pro-Val-) [2-4] | 40 | 91 | 21 | 27 |
| Ac-Ser-Tyr-Ser-Nle-Glu-His-Phe-Arg-Trp-Gly-Lys-Cys-Pro-Val-NH2 (Ac-SYS[Nle]EHFRWGKCPV-NH2; not fully specified (bridges); printed as Ac-Ser-Tyr-Ser-Nle-Glu-His-Phe-Arg-Trp-Gly-Lys-Cys-Pro-Val-NH2; numbers in words are those of the source; also: oxorhenium(V) N3S1 chelate (Re(V)=O)) [1-3] | 0 | 87 | 12 | 0 |
| Ac-Ser-Tyr-Ser-Nle-Glu-His-Phe-Arg-Trp-Gly-Lys-D-Cys-Pro-Val-NH2 (Ac-SYS[Nle]EHFRWGK[dC]PV-NH2; not fully specified (bridges); printed as Ac-Ser-Tyr-Ser-Nle-Glu-His-Phe-Arg-Trp-Gly-Lys-D-Cys-Pro-Val-NH2; numbers in words are those of the source; also: oxorhenium(V) N3S1 chelate (Re(V)=O)) [2-3] | 25 | 91 | 38 | 41 |
| Ac-Ser-Tyr-Ser-Nle-Glu-His-Phe-Arg-Trp-Gly-Lys-Gly-Cys-Val-NH2 (Ac-SYS[Nle]EHFRWGKGCV-NH2; not fully specified (bridges); printed as Ac-Ser-Tyr-Ser-Nle-Glu-His-Phe-Arg-Trp-Gly-Lys-Gly-Cys-Val-NH2; numbers in words are those of the source; also: oxorhenium(V) N3S1 chelate (Re(V)=O)) [1-2] | 0 | 87 | 37 | 6 |
| Ac-Ser-Tyr-Ser-Nle-Glu-His-Phe-Arg-Trp-Gly-Lys-Gly-D-Cys-Val-NH2 (Ac-SYS[Nle]EHFRWGKG[dC]V-NH2; not fully specified (bridges); printed as Ac-Ser-Tyr-Ser-Nle-Glu-His-Phe-Arg-Trp-Gly-Lys-Gly-D-Cys-Val-NH2; numbers in words are those of the source; also: oxorhenium(V) N3S1 chelate (Re(V)=O)) [2-2] | 28 | 93 | 32 | 26 |
| Ac-Ser-Tyr-Ser-Nle-Glu-His-Phe-Arg-Trp-Gly-Lys-Gly-Val-Cys-NH2 (Ac-SYS[Nle]EHFRWGKGVC-NH2; not fully specified (bridges); printed as Ac-Ser-Tyr-Ser-Nle-Glu-His-Phe-Arg-Trp-Gly-Lys-Gly-Val-Cys-NH2; numbers in words are those of the source; also: oxorhenium(V) N3S1 chelate (Re(V)=O)) [1-1] | 63 | 95 | 68 | 48 |
| Ac-Ser-Tyr-Ser-Nle-Glu-His-Phe-Arg-Trp-Gly-Lys-Gly-Val-D-Cys-NH2 (EHFRWGKGV; not fully specified; Ac-Ser-Tyr-Ser-Nle N-term; D-Cys; amide; printed: Glu-His-Phe-Arg-Trp-Gly-Lys-Gly-Val-) [2-1] | 46 | 97 | 53 | 72 |
